Test results: patent US20180057581A1 (MorphoSys, published 2018)

How the values were obtained:
[1] = biological target: Serum albumin (human) (human, UniProt P02768 25-609); assay: MSD specificity profiling, coated protein
Protocol: (§1) For this specificity profiling test the different proteins and controls were coated on two 384-well MSD plates with a concentration of 1 μg/ml at 4° C. over night. Plates were blocked with BSA and washed three times with PBS with 0.05% (v/v) Tween 20. Antibody samples were diluted to 100 nM and 10 nM in assay buffer (PBS with 0.5% (w/v) BSA, 0.05% (v/v) Tween 20). […] Samples and controls were incubated for three hours at room temperature. The plates were washed three times and 30 μl detection antibody (ECL-labeled anti-human Fab) were added per well and incubated for 1 h. After washing, MSD Read Buffer T with surfactant was added and electrochemiluminescence signals were detected using a Sector Imager 6000 (Meso Scale Discovery, Gaithersburg, Md., USA).

[2] = biological target: Antitrypsin (human) (human, UniProt P01009 25-418); assay: MSD specificity profiling, coated protein
Antitrypsin (human), sequence (P01009 25-418 limits assumed): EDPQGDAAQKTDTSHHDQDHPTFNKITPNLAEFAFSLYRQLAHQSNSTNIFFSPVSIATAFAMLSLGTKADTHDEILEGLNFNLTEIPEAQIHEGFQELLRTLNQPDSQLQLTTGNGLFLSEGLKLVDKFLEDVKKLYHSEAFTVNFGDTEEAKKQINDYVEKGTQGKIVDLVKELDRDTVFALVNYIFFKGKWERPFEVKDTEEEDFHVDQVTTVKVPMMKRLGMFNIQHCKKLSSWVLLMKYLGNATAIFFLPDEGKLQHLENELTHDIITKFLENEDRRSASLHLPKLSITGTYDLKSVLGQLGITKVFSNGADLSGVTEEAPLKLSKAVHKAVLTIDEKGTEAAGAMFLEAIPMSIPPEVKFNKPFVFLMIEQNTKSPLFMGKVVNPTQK
Protocol: as §1

[3] = biological target: Cytochrome c (cow) (cow, UniProt P62894 2-105); assay: MSD specificity profiling, coated protein
Cytochrome c (cow), sequence (P62894 2-105 limits assumed): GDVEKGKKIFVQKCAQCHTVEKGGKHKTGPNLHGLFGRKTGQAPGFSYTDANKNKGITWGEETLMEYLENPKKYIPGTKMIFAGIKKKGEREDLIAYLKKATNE
Protocol: as §1

[4] = biological target: Myoglobin (horse) (horse, UniProt P68082 2-154); assay: MSD specificity profiling, coated protein
Myoglobin (horse), sequence (P68082 2-154 limits assumed): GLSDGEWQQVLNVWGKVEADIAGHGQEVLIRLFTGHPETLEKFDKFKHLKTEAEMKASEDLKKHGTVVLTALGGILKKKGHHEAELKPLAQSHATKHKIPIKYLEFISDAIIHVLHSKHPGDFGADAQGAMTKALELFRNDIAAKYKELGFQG
Protocol: as §1

[5] = biological target: T1, Lectin (Lens culinaris) (Lens culinaris, UniProt P02870 31-210; P02870 218-269, limits assumed); assay: MSD specificity profiling, coated protein
T1 sequence (looked up) 1: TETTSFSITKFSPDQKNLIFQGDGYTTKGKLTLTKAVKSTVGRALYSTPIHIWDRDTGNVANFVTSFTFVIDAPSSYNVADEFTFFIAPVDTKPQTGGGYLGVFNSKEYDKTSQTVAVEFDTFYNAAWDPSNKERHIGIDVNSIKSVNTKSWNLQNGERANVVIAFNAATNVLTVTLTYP
T1 sequence (looked up) 2: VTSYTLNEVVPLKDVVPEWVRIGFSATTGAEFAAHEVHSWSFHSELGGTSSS
Protocol: as §1

[6] = biological target: T2, Ovalbumin (chicken) (chicken, UniProt P01012 2-386); assay: MSD specificity profiling, coated protein
T2 sequence (looked up): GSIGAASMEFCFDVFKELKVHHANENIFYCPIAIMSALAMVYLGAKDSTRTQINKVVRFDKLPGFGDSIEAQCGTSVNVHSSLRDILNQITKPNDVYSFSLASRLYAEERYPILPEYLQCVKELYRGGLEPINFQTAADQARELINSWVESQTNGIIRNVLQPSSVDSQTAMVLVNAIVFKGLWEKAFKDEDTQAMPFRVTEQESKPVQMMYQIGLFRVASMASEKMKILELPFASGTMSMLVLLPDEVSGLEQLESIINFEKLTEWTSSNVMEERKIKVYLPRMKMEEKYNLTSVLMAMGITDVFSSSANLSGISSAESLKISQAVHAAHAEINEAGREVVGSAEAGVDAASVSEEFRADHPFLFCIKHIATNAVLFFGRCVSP
Protocol: as §1

[7] = biological target: T3, RNase B (cow) (cow, UniProt P61823 27-150); assay: MSD specificity profiling, coated protein
T3 sequence (looked up): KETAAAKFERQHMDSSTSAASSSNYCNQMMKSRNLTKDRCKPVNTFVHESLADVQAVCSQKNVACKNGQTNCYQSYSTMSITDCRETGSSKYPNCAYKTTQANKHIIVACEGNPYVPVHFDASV
Protocol: as §1

[8] = biological target: T4, RNase A (cow) (cow, UniProt P61823 27-150); assay: MSD specificity profiling, coated protein
T4 sequence (looked up): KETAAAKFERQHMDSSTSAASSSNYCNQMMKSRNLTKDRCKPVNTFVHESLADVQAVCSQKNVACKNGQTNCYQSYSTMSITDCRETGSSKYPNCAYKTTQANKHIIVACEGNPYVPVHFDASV
Protocol: as §1

[9] = biological target: T5, Recombinant human sgM-CSF (human, UniProt P09603 33-255); assay: Table 12 summary, criterion Binding, Human M-CSF; assay and antibody format not named there
T5 construct: also called human secreted glycosylated M-CSF; Human M-CSF
T5 sequence: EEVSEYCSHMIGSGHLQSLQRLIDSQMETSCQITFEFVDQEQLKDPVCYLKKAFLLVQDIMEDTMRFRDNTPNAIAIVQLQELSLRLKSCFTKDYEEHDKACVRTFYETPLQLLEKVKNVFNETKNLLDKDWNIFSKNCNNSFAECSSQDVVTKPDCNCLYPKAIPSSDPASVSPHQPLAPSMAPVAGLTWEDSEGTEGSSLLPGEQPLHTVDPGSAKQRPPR
Protocol: The monovalent affinity of the antibodies of the present disclosure was determined by soluble equilibrium titration (Haenel et al. (2005) Anal Biochem 339, 182-4).

[10] = biological target: T6, Recombinant cynomolgus monkey sgM-CSF (cynomolgus (Macaca fascicularis), UniProt P09603 33-255 (human entry), limits assumed); assay: Receptor binding assay, inhibition of cynomolgus M-CSF binding to M-CSF receptor (competitor CSF1-R-Fc); Table 12 summary
T6 construct: used also where only 'cynomolgus M-CSF' is printed (ELISA result, SET); also called cynomolgus sgM-CSF; cyno sgM-CSF
T6 chain: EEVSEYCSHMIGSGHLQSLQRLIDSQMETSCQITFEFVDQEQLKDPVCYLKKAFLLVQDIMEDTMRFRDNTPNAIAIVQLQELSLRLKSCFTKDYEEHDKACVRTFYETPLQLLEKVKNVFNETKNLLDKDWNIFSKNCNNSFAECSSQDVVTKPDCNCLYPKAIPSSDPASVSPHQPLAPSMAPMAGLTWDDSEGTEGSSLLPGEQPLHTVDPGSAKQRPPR
Protocol: Complexes were then transferred to 384 well MSD plates coated with 2 μg/ml of the corresponding receptor. Plates were then washed and incubated with the streptavidin/ECL conjugate for 2 h with shaking at room temperature. 35 μl MSD read buffer T with surfactant was then added per well and subsequently measured using MSD Sector Imager 6000.

B1: Camille (format not stated) (antibody, V domains shown)
VH: QVQLQQSGPGLVKPSQTLSLTCAISGESVSTSSAAWNWIRQSPSRGLEWLGRTYYRSKWKHEYAVSVKSRITINPDTSKNQFSLQLNSVTPEDTAVYYCARDRYYYSAFDYWGQGTLVTVSS
VL: QSALTQPASVSGSPGQSITISCTGTSSDVGGYNSVSWYQQHPGKAPKLLIYAVSNRPSGVSNRFSGSKSGNTASLTISGLQAEDEADYYCASYDERFTRVFGGGTKLTVLG
notes: also called Antibody Camille
binding result [1]: no binding (tested: 100 nM and 10 nM antibody) | binding result [2]: no binding (tested: 100 nM and 10 nM antibody) | binding result [3]: no binding (tested: 100 nM and 10 nM antibody) | binding result [4]: no binding (tested: 100 nM and 10 nM antibody) | binding result [5]: no binding (tested: 100 nM and 10 nM antibody) | binding result [6]: no binding (tested: 100 nM and 10 nM antibody) | binding result [7]: no binding (tested: 100 nM and 10 nM antibody) | binding result [8]: no binding (tested: 100 nM and 10 nM antibody) | Kd [9]: 0.018 nM | IC50 [10]: 0.006 nM
